In article PMC3338697, “Determination of Membrane Protein Transporter Oligomerization in Native Tissue Using Spatial Fluorescence Intensity Fluctuation Analysis” (PLoS ONE, 2012):

Molecular target: the molecule itself
Experiment: fluorescence image moment analysis; CLSM images of rat kidney cryostat sections immunolabelled with primary anti-NBCe1-A antibody and Alexa 488 secondary antibody; proximal tubule basolateral membranes; brightness normalised to non-specifically bound antibody (44±4 iu = 1 MEU)

B1: native NBCe1-A in rat kidney (proximal tubule basolateral cell membranes) (natural protein, rat (endogenous in rat kidney), UniProt Q9JI66-2 1-1035, looked up)
chain: MSTENVEGKPNNLGERGRARSSTFLRVFQPMFNHSIFTSAVSPAAERIRFILGEEDDSPAPPQLFTELDELLAVDGQEMEWKETARWIKFEEKVEQGGERWSKPHVATLSLHSLFELRTCMEKGSIMLDREASSLPQLVEMIADHQIETGLLKPDLKDKVTYTLLRKHRHQTKKSNLRSLADIGKTVSSASRMFSNPDNGSPAMTHRNLTSSSLNDISDKPEKDQLKNKFMKKLPRDAEASNVLVGEVDFLDTPFIAFVRLQQAVMLGALTEVPVPTRFLFILLGPKGKAKSYHEIGRAIATLMSDEVFHDIAYKAKDRHDLIAGIDEFLDEVIVLPPGEWDPAIRIEPPKSLPSSDKRKNMYSGGENVQMNGDTPHDGGHGGGGHGDCEELQRTGRFCGGLIKDIKRKAPFFASDFYDALNIQALSAILFIYLATVTNAITFGGLLGDATDNMQGVLESFLGTAVSGAIFCLFAGQPLTILSSTGPVLVFERLLFNFSKDHSFDYLEFRLWIGLWSAFMCLILVATDASFLVQYFTRFTEEGFSSLISFIFIYDAFKKMIKLADYYPINSDFRVGYNTHFSCACLPPDPVNLSVSNDTTLAPEDLPTVSSTDMYHNATFDWAYLSKKECVKFGGKLVGNNCDFVPDITLMSFILFLGTYTSSMAMKKFKTSRYFPTTARKLISDFAIILSILIFCVIDALVGVDTPKLIVPSEFKPTSPHRGWFVPPFGGNPWWVCLAAAIPALLVTILIFMDQQITAVIVNRKEHKLKKGAGYHLDLFWVAILMVVCSFMALPWYVAATVISIAHIDSLKMETETSAPGEQPKFLGVREQRVTGTLVFILTGLSVFMAPILKFIPMPVLYGVFLYMGVASLNGVQFMDRLKLLLMPLKHQPDFIYLRHVPLRRVHLFTSLQVLCLALLWILKSTVAAIIFPVMILALVAVRKGMDYLFSQHDLSFLDDVIPEKDKKKKEDEKKKKKKKGSLDSDNDDSDCPYSEKVPSIKIPMDITEQQPFLSDNKPLDRERSSTFLERHTSC
notes: Detected by a primary rabbit anti-NBCe1-A antibody and an Alexa 488 secondary antibody; also called endogenous NBCe1-A; immunolabeled NBCe1-A; source: endogenous, rat kidney cryostat sections (bought: Zyagen RF-901)
stoichiometry N: 2
